First the molecules themselves.
B1: GA-binding protein alpha chain, residues 172 to 250; numbered along this chain, Q06546 (parent)
chain: GYRKEQERLGIPYDPIQWSTDQVLHWVVWVMKEFSMTDIDLTTLNISGRELCSLNQEDFFQRVPRGEILWSHLELLRKY

± gives the uncertainty stated by the source.

The source of these data is the Human Domainome abundance scans (Beltran et al. 2025).

The data set covers variants of B1. Kind of data set: abundance fitness (aPCA) (normalised: wild type 0, dead -1); higher = more abundant; growth selection in yeast, the domain comes from the species named. Particulars: Homo sapiens.
On to GYRKEQERLGIPYDPIQWSTDQVLHWVVWVMKEFSMTDIDLTTLNISGRELCSLNQEDSFQRVPRGEILWSHLELLRKY [F59S], for which the abundance fitness was -0.626 ± 0.068.
Under GYRKEQERLGIPYDPIQWSTDQVLHWVVWVMKEFSMTDIDLTTLNISGRELCSLNQEDKFQRVPRGEILWSHLELLRKY [F59K] stands -0.815 ± 0.22.
Consider GYRKEQERLGIPYDPIQWSTDQVLHWVVWVMKEFSMTDIDLTTLNISGRELCSLNQEDWFQRVPRGEILWSHLELLRKY [F59W], for which the abundance fitness was -0.263 ± 0.051.
For GYRKEQERLGIPYDPIQWSTDQVLHWVVWVMKEFSMTDIDLTTLNISGRELCSLNQEDVFQRVPRGEILWSHLELLRKY [F59V] the value was -0.803 ± 0.072; for GYRKEQERLGIPYDPIQWSTDQVLHWVVWVMKEFSMTDIDLTTLNISGRELCSLNQEDPFQRVPRGEILWSHLELLRKY [F59P], -1.02 ± 0.17; for GYRKEQERLGIPYDPIQWSTDQVLHWVVWVMKEFSMTDIDLTTLNISGRELCSLNQEDYFQRVPRGEILWSHLELLRKY [F59Y], -0.853 ± 0.13.
Under GYRKEQERLGIPYDPIQWSTDQVLHWVVWVMKEFSMTDIDLTTLNISGRELCSLNQEDTFQRVPRGEILWSHLELLRKY [F59T] stands -1.02 ± 0.27; under GYRKEQERLGIPYDPIQWSTDQVLHWVVWVMKEFSMTDIDLTTLNISGRELCSLNQEDRFQRVPRGEILWSHLELLRKY [F59R], -0.552 ± 0.058; under GYRKEQERLGIPYDPIQWSTDQVLHWVVWVMKEFSMTDIDLTTLNISGRELCSLNQEDNFQRVPRGEILWSHLELLRKY [F59N], -0.74 ± 0.19.
For GYRKEQERLGIPYDPIQWSTDQVLHWVVWVMKEFSMTDIDLTTLNISGRELCSLNQEDFNQRVPRGEILWSHLELLRKY [F60N], the abundance fitness is -0.183 ± 0.17.
For the variant GYRKEQERLGIPYDPIQWSTDQVLHWVVWVMKEFSMTDIDLTTLNISGRELCSLNQEDFYQRVPRGEILWSHLELLRKY [F60Y], the abundance fitness was -0.06 ± 0.1.
Under GYRKEQERLGIPYDPIQWSTDQVLHWVVWVMKEFSMTDIDLTTLNISGRELCSLNQEDFPQRVPRGEILWSHLELLRKY [F60P] stands -0.527 ± 0.062; under GYRKEQERLGIPYDPIQWSTDQVLHWVVWVMKEFSMTDIDLTTLNISGRELCSLNQEDFKQRVPRGEILWSHLELLRKY [F60K], -0.048 ± 0.092.
With GYRKEQERLGIPYDPIQWSTDQVLHWVVWVMKEFSMTDIDLTTLNISGRELCSLNQEDFMQRVPRGEILWSHLELLRKY [F60M], the abundance fitness turned out to be 0.121 ± 0.1.
For GYRKEQERLGIPYDPIQWSTDQVLHWVVWVMKEFSMTDIDLTTLNISGRELCSLNQEDFLQRVPRGEILWSHLELLRKY [F60L] the value was 0.033 ± 0.042.
Under GYRKEQERLGIPYDPIQWSTDQVLHWVVWVMKEFSMTDIDLTTLNISGRELCSLNQEDFIQRVPRGEILWSHLELLRKY [F60I] stands 0.039 ± 0.1; under GYRKEQERLGIPYDPIQWSTDQVLHWVVWVMKEFSMTDIDLTTLNISGRELCSLNQEDFVQRVPRGEILWSHLELLRKY [F60V], 0.049 ± 0.037; under GYRKEQERLGIPYDPIQWSTDQVLHWVVWVMKEFSMTDIDLTTLNISGRELCSLNQEDFQQRVPRGEILWSHLELLRKY [F60Q], -0.053 ± 0.071.
For GYRKEQERLGIPYDPIQWSTDQVLHWVVWVMKEFSMTDIDLTTLNISGRELCSLNQEDFWQRVPRGEILWSHLELLRKY [F60W] the value was -0.211 ± 0.051.
GYRKEQERLGIPYDPIQWSTDQVLHWVVWVMKEFSMTDIDLTTLNISGRELCSLNQEDFRQRVPRGEILWSHLELLRKY [F60R]: the abundance fitness stood at 0.003 ± 0.04.
GYRKEQERLGIPYDPIQWSTDQVLHWVVWVMKEFSMTDIDLTTLNISGRELCSLNQEDFCQRVPRGEILWSHLELLRKY [F60C]: the abundance fitness was -0.088 ± 0.11.
With GYRKEQERLGIPYDPIQWSTDQVLHWVVWVMKEFSMTDIDLTTLNISGRELCSLNQEDFHQRVPRGEILWSHLELLRKY [F60H], the abundance fitness was -0.118 ± 0.13.
Under GYRKEQERLGIPYDPIQWSTDQVLHWVVWVMKEFSMTDIDLTTLNISGRELCSLNQEDFGQRVPRGEILWSHLELLRKY [F60G] stands -0.101 ± 0.038.
For GYRKEQERLGIPYDPIQWSTDQVLHWVVWVMKEFSMTDIDLTTLNISGRELCSLNQEDFTQRVPRGEILWSHLELLRKY [F60T] the value was -0.044 ± 0.061; for GYRKEQERLGIPYDPIQWSTDQVLHWVVWVMKEFSMTDIDLTTLNISGRELCSLNQEDFEQRVPRGEILWSHLELLRKY [F60E], -0.074 ± 0.097.
Consider GYRKEQERLGIPYDPIQWSTDQVLHWVVWVMKEFSMTDIDLTTLNISGRELCSLNQEDFSQRVPRGEILWSHLELLRKY [F60S], for which the abundance fitness is 0 ± 0.051.
Under GYRKEQERLGIPYDPIQWSTDQVLHWVVWVMKEFSMTDIDLTTLNISGRELCSLNQEDFAQRVPRGEILWSHLELLRKY [F60A] stands -0.03 ± 0.046.
Consider GYRKEQERLGIPYDPIQWSTDQVLHWVVWVMKEFSMTDIDLTTLNISGRELCSLNQEDFFQREPRGEILWSHLELLRKY [V63E], for which the abundance fitness was -0.563 ± 0.045.
As to GYRKEQERLGIPYDPIQWSTDQVLHWVVWVMKEFSMTDIDLTTLNISGRELCSLNQEDFFQRAPRGEILWSHLELLRKY [V63A], the abundance fitness is -0.075 ± 0.044.
For GYRKEQERLGIPYDPIQWSTDQVLHWVVWVMKEFSMTDIDLTTLNISGRELCSLNQEDFFQRFPRGEILWSHLELLRKY [V63F] the value was 0.018 ± 0.057; for GYRKEQERLGIPYDPIQWSTDQVLHWVVWVMKEFSMTDIDLTTLNISGRELCSLNQEDFFQRDPRGEILWSHLELLRKY [V63D], -0.667 ± 0.18; for GYRKEQERLGIPYDPIQWSTDQVLHWVVWVMKEFSMTDIDLTTLNISGRELCSLNQEDFFQRCPRGEILWSHLELLRKY [V63C], -0.012 ± 0.074.
Under GYRKEQERLGIPYDPIQWSTDQVLHWVVWVMKEFSMTDIDLTTLNISGRELCSLNQEDFFQRHPRGEILWSHLELLRKY [V63H] stands -0.886 ± 0.4; under GYRKEQERLGIPYDPIQWSTDQVLHWVVWVMKEFSMTDIDLTTLNISGRELCSLNQEDFFQRIPRGEILWSHLELLRKY [V63I], -0.077 ± 0.068; under GYRKEQERLGIPYDPIQWSTDQVLHWVVWVMKEFSMTDIDLTTLNISGRELCSLNQEDFFQRGPRGEILWSHLELLRKY [V63G], -0.218 ± 0.027.
